T1: Esc2 1-151 (Saccharomyces cerevisiae, UniProt Q06340 1-151)
T1 sequence: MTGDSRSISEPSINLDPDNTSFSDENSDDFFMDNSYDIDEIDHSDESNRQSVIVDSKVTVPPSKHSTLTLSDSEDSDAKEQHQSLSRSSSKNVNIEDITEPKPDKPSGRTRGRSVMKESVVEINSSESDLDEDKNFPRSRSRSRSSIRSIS

T2: Esc2 FF173,174AA (Saccharomyces cerevisiae, UniProt Q06340 1-456, F173A;F174A)
T2 sequence: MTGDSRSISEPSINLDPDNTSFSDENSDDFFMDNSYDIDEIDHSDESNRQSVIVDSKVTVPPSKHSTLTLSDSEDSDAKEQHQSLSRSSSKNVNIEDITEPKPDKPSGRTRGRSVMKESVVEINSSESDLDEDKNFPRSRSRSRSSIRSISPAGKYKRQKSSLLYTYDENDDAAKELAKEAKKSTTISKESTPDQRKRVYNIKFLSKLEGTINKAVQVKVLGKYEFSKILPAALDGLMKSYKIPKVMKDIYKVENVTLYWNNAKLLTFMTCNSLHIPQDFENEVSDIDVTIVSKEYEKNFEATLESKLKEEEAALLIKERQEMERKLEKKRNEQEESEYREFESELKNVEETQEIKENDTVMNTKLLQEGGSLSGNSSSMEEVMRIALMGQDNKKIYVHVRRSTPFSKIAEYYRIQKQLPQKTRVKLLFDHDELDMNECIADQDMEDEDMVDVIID

T3: Esc2 200-456 (Saccharomyces cerevisiae, UniProt Q06340 200-456)
T3 sequence: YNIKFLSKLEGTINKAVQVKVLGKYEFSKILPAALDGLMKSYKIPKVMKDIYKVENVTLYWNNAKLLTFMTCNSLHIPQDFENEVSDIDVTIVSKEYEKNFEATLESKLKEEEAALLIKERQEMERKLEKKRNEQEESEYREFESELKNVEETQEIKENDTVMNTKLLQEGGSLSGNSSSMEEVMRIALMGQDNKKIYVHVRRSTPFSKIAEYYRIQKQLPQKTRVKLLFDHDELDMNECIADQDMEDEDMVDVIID

T4: Esc2 (Saccharomyces cerevisiae, UniProt Q06340 1-456)
T4 sequence: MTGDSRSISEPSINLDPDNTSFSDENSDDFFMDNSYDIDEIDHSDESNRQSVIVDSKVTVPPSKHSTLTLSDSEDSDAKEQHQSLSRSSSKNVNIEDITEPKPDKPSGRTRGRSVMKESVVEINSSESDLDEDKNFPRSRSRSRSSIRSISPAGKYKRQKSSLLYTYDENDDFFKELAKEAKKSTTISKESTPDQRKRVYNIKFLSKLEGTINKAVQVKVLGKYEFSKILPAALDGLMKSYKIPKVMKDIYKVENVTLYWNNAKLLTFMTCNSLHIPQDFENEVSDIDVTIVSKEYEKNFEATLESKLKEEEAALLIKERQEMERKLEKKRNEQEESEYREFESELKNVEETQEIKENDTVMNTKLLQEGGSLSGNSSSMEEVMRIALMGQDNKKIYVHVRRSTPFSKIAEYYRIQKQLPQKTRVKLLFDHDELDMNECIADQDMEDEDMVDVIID

T5: Esc2 1-199 (Saccharomyces cerevisiae, UniProt Q06340 1-199)
T5 sequence: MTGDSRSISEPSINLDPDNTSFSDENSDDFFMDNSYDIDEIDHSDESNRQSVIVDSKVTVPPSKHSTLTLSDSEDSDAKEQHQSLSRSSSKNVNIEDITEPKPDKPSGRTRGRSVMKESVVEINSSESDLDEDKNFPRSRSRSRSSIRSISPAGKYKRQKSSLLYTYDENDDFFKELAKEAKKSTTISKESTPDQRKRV


Assays:
Esc2 1-151 = molecular target: T1, Esc2 1-151; assay: EMSA; binding completely lost; up to 1000 nM protein; EMSA, 7 nM fluorescein-labeled DNA, 10 min at 37 C; buffer, salt and pH not given in the material; settings: protein: recombinant; tags: expressed as GST fusion; tag status in assay not explicit; label: 5'-fluorescein on strand 1; fork 1:3 1:4 2:4; three duplex arms
Esc2 FF173,174AA = molecular target: T2, Esc2 FF173,174AA; assay: EMSA; still proficient, degree only in figure; EMSA, 7 nM fluorescein-labeled DNA, 10 min at 37 C; buffer, salt and pH not given in the material; settings: protein: recombinant; tags: expressed as GST fusion; tag status in assay not explicit; label: 5'-fluorescein on strand 1; fork 1:3 1:4 2:4; three duplex arms
Esc2 200-456 = molecular target: T3, Esc2 200-456; assay: EMSA; up to 1000 nM protein; EMSA, 7 nM fluorescein-labeled DNA, 10 min at 37 C; buffer, salt and pH not given in the material; settings: protein: recombinant; tags: expressed as GST fusion; tag status in assay not explicit; label: 5'-fluorescein on strand 1; fork 1:3 1:4 2:4; three duplex arms
Esc2 = molecular target: T4, Esc2; assay: EMSA; strong preference; 7 nM DNA; EMSA, 7 nM fluorescein-labeled DNA, 10 min at 37 C; buffer, salt and pH not given in the material; settings: protein: recombinant, tags: GST tag removed, label: 5'-fluorescein on strand 1
Esc2 1-199 = molecular target: T5, Esc2 1-199; assay: EMSA; highly proficient; 7 nM DNA, 0-1000 nM protein; EMSA, 7 nM fluorescein-labeled DNA, 10 min at 37 C; buffer, salt and pH not given in the material; settings: protein: recombinant; tags: expressed as GST fusion; tag status in assay not explicit; label: 5'-fluorescein on strand 1; fork 1:3 1:4 2:4; three duplex arms

Row | Binder | binding result (Esc2 1-151) | binding result (Esc2 FF173,174AA) | binding result (Esc2 200-456) | binding result (Esc2; fork 1:3 1:4 2:4, three duplex arms) | binding result (Esc2 1-199) | binding result (Esc2; 3' flap 1:2 1:3, 20 nt ss 3' flap on strand 3)
1 | Fork (oligos 18, 20, 21, 22) (structured_DNA) DNA 1: AGCTACCATGCCTGCACGAATTAAGCAATTCGTAATCATGGTCATAGCT DNA 2: CTACAGTTCGTCAGGATTCC DNA 3: AATTCGTGCAGGCATGGTAGCT DNA 4: AGCTATGACCATGATTACGAATTGCTTGGAATCCTGACGAACTGTAG | no binding | binds | no binding | binds | binds | 
2 | 3'-Flap (oligos 18, 21, 22) (structured_DNA) DNA 1: AGCTACCATGCCTGCACGAATTAAGCAATTCGTAATCATGGTCATAGCT DNA 2: AATTCGTGCAGGCATGGTAGCT DNA 3: AGCTATGACCATGATTACGAATTGCTTGGAATCCTGACGAACTGTAG |  |  |  |  |  | binds

From article PMC4604347, “Local regulation of the Srs2 helicase by the SUMO-like domain protein Esc2 promotes recombination at sites of stalled replication”
